The record followed here is PMC12216052 (2025).

One experiment concerns the target ACVR2A (Homo sapiens (Human), UniProt P27037). Put plainly: SPR steady state, receptor-Fc on chip, monomer analyte.
Another experiment addresses T1, ACVR1B (Homo sapiens (Human), UniProt P36896).
T1 chain: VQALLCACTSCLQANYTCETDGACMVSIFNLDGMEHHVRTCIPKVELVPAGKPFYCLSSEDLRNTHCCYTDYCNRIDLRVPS
The experiment is described as above.

ACVR2A, sequence (P27037 25-118): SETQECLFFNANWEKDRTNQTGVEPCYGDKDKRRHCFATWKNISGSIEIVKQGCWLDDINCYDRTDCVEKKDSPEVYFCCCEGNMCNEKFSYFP

B1: DLK1 (protein)
chain: VANSCTPNPCENDGVCTDIGGDFRCRCPAGFIDKTCSRPVTNCASSPCQNGGTCLQHTQVSYECLCKPEFTGLTCVKK
With B1, the Kd with ACVR2A and with ACVR1B was greater than 10 µM in each case.

What is called Kd is the equilibrium constant for the complex coming apart.
